# Test: soluble on expression in E. coli; label from the status in PepcDB or PDB records
row,Sequence,soluble on expression in E. coli
1,MPVKPASPRSHPGCPELTHERYCDAQAKAEDARYRKYQRDPKINRRYGSRWRKIRAAYVAAHPLCEDCLEAGRYTPVQEVHHVLPIEHGGTHNFDNLQSLCKPCHSRQSALDDDRWRQQPRVYTYLEHHHHHH,soluble
2,MFQLSTQDIHLAAQADNKNAAITQVAAALTQAGCVTAAYVDGMLAREQQTSTYLGNGIAIPHGTTDTRDQVLNTGVQVFQFPQGIEWGADQTAYIVIGIAARSDEHLALLRQLTHVLSDDAVAARLAKTTSAEELRSLLMGEQKTAEFHFDTSLIALDVAADNLITLQALNAGRLQQIGAVDARFVSDVITREPLNLGQGIWLSDSTEGNLVSAVTISRPATAFEHKGEKVALLLTLSVADDQPLTVLNYLSELLLAQKADALLNADAAALLALLTSEYVEQSKVLSAEFVIRNEHGLHARPGTILVNTIKQFTSEITVTNLDGTGKPANGRSLMKVVALGVKKGNRLRFTASGEDAQTALDTIGEVIAAGLGEGAA,not soluble
3,MQENSPLLQLQNVGYLAGDAKILNNINFSLRAGEFKLITGPSGCGKSTLLKIVASLISPTSGTLLFEGEDVSTLKPEIYRQQVSYCAQTPTLFGDTVYDNLIFPWQIRNRQPDPAIFLDFLERFALPDSILTKNIAELSGGEKQRISLIRNLQFMPKVLLLDEITSALDESNKHNVNEMIHRYVREQNIAVLWVTHDKDEINHADKVITLQPHAGEMQEARYELA,not soluble
4,MGSDKIHHHHHHMGVIQKIKNLVTRSKYVMTTQSLTNITDHPKIAISKLEYDRITTNLKYYKSDWDSVLYLNTDGETKKRDLNHLPIARTAAKKIASLVFNEQAEIKVDDDAANEFISETLKNDRFNKNFERYLESCLALGGLAMRPYVDGDKVRVAFVQAPVFLPLQSNTQDVSSAAVVIKSVKTINGKEVYYTLIEFHEWQSSDDYVISNELYRSDDKAKVGSRVPLSEVYKDLKDEAKVTDVTRPIFTYLKTPGMNNKDINSPLGLSIFDNAKTTIDFINTTYDEFMWEVKMGQRRVAVPESLTALTVRTADGDVVPRPRFESDQNVYIRMGGRDLDSSAIQDLTTPIRADDYIKAINEGLSLFEMQIGVSAGLFSFDGKSMKTATEIVSENSDTYQMRNSIVTLVEQSLKELVISIFEIAKAYDLYQSEVPSMDNISISLDDGVFTDRDAELDYWIKVVNAGFGTREMAIQKVLNVTEEKAQEIAAEINTGIVDEINQQRTDTHLYGE,not soluble
5,MKGLILAAGRGTRLRPLTHTRPKPAIRVAGRPIIHYAVENLLEAGVREIGVVVSPETERDLKVALEGYPVRYVLQEEPQGLAHAVDVARGFLGESPFVLYLGDNLFQKGIRRFLEAFKPGVSAVIALVRVEDPRQFGVAVLEGNRVVRLLEKPKDPPSDLAVAGVYVFSPEVLEVVRGLKPSARGEYEITDAIQGLIDRGKTVVGVEVEGWWKDTGRHQDLLDANRLLLEELTPKVEGDVVESQLTGRVVVEKGAKVVRSTVIGPAHIGAGAVVEEAFVGPFTSVGPRARVVRSEVEYSLLEEEAVVEEVRLRLQECILGVRAEVKSRDGLPRAHRLILGDLSQVELA,soluble
6,MIFEQGIEIKASATVVEQCFTDLDLMHLWLNPALRCEPIGQWSTAIGGRSRFTIQIPLLKPSLKSVVVERSPGLVVWQFKGFFQGQDRWECRPLEEGTYLLNRFEFTVPNPVVQWGFQMFAARWTSADMQAQLRRLKQVAEREYINSLEHHHHHH,not soluble
7,MGSDKIHHHHHHMITEELQKLYQEYTGVPVENITELPSSGSNRRYFRLTGAKTLIGVCGTSVEENDAFLYMAAHFRKSGLPVPEVHIVSENKSYYLQEDLGDTLLFHAIEKGRATSVFSEEEKELLRKTVRLLPAIQFAGADGFDFSRCYPQPEFNQRSILWDLNYFKYCFLKATGMEFQEDKLEDDFQKMSDVLLRSSSATFMYRDFQSRNVMIKDGEPWFIDFQGGRKGPFYYDVASFLWQAKAKYPDSLRQELLKEYIDALRKYQPIDEPYFYSQLRHFVLFRTLQVLGAYGFRGYFEKKPHFIQSVPFAIQNLRDLLKEAYPEYPYLCNVLRELTELKQFTDDLKKRQLTVKVMSFAYKKGIPDDPTGNGGGYVFDCRAVNNPGKYERYKPFTGLDEPVISFLEEDGEILRFLDSVYALVDASVKRYMERGFSNLSVCFGCTGGQHRSVYSAQHLAEHLNRKFGVKVELVHREQNIERTFEATV,not soluble
8,MAFNTPTLSTLIKQGEQQFQYRFPTLKRHNVIGVINRICAALSAGEHMHLDWLARQIIPTTAEEDYLIEYCLYKGIVRKQASTATGLVTVTAANDTTIPAGTVFEDTNTGLTFITTQETVVKAGTADIAVKCETTGVEGNLKAGTSLSLTSAILGLLPTATVKVMSGGADIESLSRLLARLIYRVQYPPAGGASHDYIRWATEVPGVTRAWCFERYYGGGTVGVAFACDEREDILPTPEDIARVRAYIEGHKNEVTGQFEGMPANVELYVFAPQFQAVNFKIRLAPNTPTLRQAVRKSLAAYLANAGVGALLYLSQIRATVSNTAGEVDNSVIFPTADVQLLSDNIAILGDIEWL,not soluble
9,MLILNQRQQELLDMVKRESYVSVEKLADHFSVTRQTIRRDIALLAEHQLLQRYHGGASVLSSVENVAYQARQVLCIEEKRRIAACVARHIPDNASLFINLGTTTEEVAKALHRHRGLRVITNNLHVAEQMCDYPDCEVIVLGGSLRKRDRGLTGEATVQMIRQFRVDYGIIGVSSIESDGTLRDYDYREVRTTEAIIQQSRQVFLAADHSKFDRPALVELGRLSQIAALFTDKPVPPAIAHVMQEAGTQLHVAELEHHHHHH,soluble
10,MTLMKKFYVTTPIYYVNDVPHLGHAYTTIAADTIARYYRLRDYDVFFLTGTDEHGLKIQKKAEELGISPKELVDRNAERFKKLWEFLKIEYTKFIRTTDPYHVKFVQKVFEECYKRGDIYLGEYEGWYCVGCEEFKSEAELAEDHTCPIHQKKCEYIKEPSYFFRLSKYQDKLLELYEKNPEFIQPDYRRNEIISFVKQGLKDLSVTRPRSRVKWGIPVPFDPEHTIYVWFDALFNYISALEDKVEIYWPADLHLVGKDILRFHTVYWPAFLMSLGYELPKKVFAHGWWTVEGKKMSKTLGNVVDPYEVVQEYGLDEVRYFLLREVPFGQDGDFSKKAILNRINGELANEIGNLYSRVVNMAHKFLGGEVSGARDEEYAKIAQESIKNYENYMEKVNFYKAIEEILKFTSYLNKYVDEKQPWALNKERKKEELQKVLYALVDGLFVLTHLLYPITPNKMKEALQMLGEKEFLKELKPYSKNTYKLGERKILFPKREG,soluble
11,MVENLKQLQERVAVSDGRAKADLVIKNGRIINVFSGEIMDGDIAIKNGYIAGIGSFPDAEKIIDAAGAFIAPGFIDAHVHVESAMVTPAEFARVLLPNGVTTIVTDPHEIANVAGEKGIEFMLEDAKGAPLDMFVMLPSSVPATEGEHNGETLHAEKLHPLYRHEKVIGLAEVMDFPSVAKGSDDILRKIIDAKKEGGRIDGHGAGLTSADLNNYLAVGIRTDHESTTAKEATDRLRAGMFVMLREGTVGRDLLQTIPAVSEKNSHRFCFCTDDKLINDLITEGSINYNIKLAIKNGIDPITAIQMATINAANCHNLPYLGAVAAGYQADIVFLTDIETVEISKVLKNGEVVVDNGVRNEAAFKQQAAVPFVSPPINHHVHLQDLALPLTKETCYVIGMQPNSLFTEKRIEQVTIQGGKFVPTVENDLLKMAVVERHHDTGCVGVGIVKGFGLTEGAIATTVAHDSHNIVAVGVSDEAMKAAIDHITQTGGGIAVVNGAGQVLHDLALPIAGLLSDKSYEEVENDLAGLLNAFKQISTANGFDPFLTLSFLTLPVIPELKLTDQGLFDFATFQIISNEVN,not soluble
12,MALSANSDAVTYAKAANTRTAAETGDRIEWVKLSLAFLPLATPVSDAKVLTGRQKPLTEVAIIIAEIRSRDGFEGVGFSYSKRAGGQGIYAHAKEIADNLLGEDPNDIDKIYTKLLWAGASVGRSGMAVQAISPIDIALWDMKAKRAGLPLAKLLGAHRDSVQCYNTSGGFLHTPLDQVLKNVVISRENGIGGIKLAVGQPNCAEDIRRLTAVREALGDEFPLMVDANQQWDRETAIRMGRKMEQFNLIWIEEPLDAYDIEGHAQLAAALDTPIATGEMLTSFREHEQLILGNASDFVQPDAPRVGGISPFLKIMDLAAKHGRKLAPHFAMEVHLHLSAAYPLEPWLEHFEWLNPLFNEQLELRDGRMWISDRHGLGFTLSEQARRWTQLTCEFGKRP,soluble
13,MEKKTIVLGVIGSDCHAVGNKILDHAFTNAGFNVVNIGVLSPQEVFIKAAIETKADAILLSSLYGQGEIDCKGLRQKCDEAGLEGILLYVGGNIVVGKQHWPDVEKRFKDMGYDRVYAPGTPPEVGIADLKKDLNIE,soluble
14,MGSDKIHHHHHHMVNGRFFTTAGESPAFRGRAWGRVVTQYFGGLDACCDGDDAFDAQLSQYEIGPMRVFTIAAPAHRIVRPVAALHDHGSDFFKLILQLSGVSEIEQRGKTFRLHSGDWSLYDPRVPYSIANLTHVEQLAIQIPRKQLGGFAVPDLHTSDVREFELKGLFSLLSSFLVSLSEQLPSLPGTTGTALSETILGLIVSTLTAQRDAQGEHVALPAVLRMRVKQYIHGHLADADLSIDRIARELRCSKRYLHRIFEEEGVTIDRYIWSSRLERCKDALDNARAAKPAISEIAFSWGFSSSAHFCRSFKQRYGMTPREFVRRRAWS,not soluble
15,MSRVRTKTVKKASRVLIEKYYTRMTNDFHNNKRVCDEVAIIGSKPLRNKIAGYITHLMRRIERGPVRGISIKLQEEERERRDNYMPEISTVDPSQLTSIKVDTDTSDMLKAAGFNLPNVTVEDQGKNKGK,not soluble
16,MGSSHHHHHHGSPIHDKSPRPQEFAAVDLGSNSFHMVIARVVDGAMQIIGRLKQRVHLADGLGPDNMLSEEAMTRGLNCLSLFAERLQGFSPASVCIVGTHTLRQALNATDFLKRAEKVIPYPIEIISGNEEARLIFMGVEHTQPEKGRKLVIDIGGGSTELVIGENFEPILVESRRMGCVSFAQLYFPGGVINKENFQRARMAAAQKLETLTWQFRIQGWNVAMGASGTIKAAHEVLMEMGEKDGIITPERLEKLVKEVLRHRNFASLSLPGLSEERKTVFVPGLAILCGVFDALAIRELRLSDGALREGVLYEMEGRFRHQDVRSRTASSLANQYHIDSEQARRVLDTTMQMYEQWREQQPKLAHPQLEALLRWAAMLHEVGLNINHSGLHRHSAYILQNSDLPGFNQEQQLMMATLVRYHRKAIKLDDLPRFTLFKKKQFLPLIQLLRLGVLLNNQRQATTTPPTLTLITDDSHWTLRFPHDWFSQNALVLLDLEKEQEYWEGVAGWRLKIEEESTPEIAA,soluble
17,MGSDKIHHHHHHMLLAVDHTTHYVFSGPVSHGLQRLRLAPKSTAGQRVVEWSMQFEGARLQAEYDDANNNRVSLISFDPGVSQVTIRCEGLVDTNDEAGIIGKHAGFMPMWQFLEQTDLTRAGARTRALLAALPHEDSTLVKLHALSALVRERVEYASGHTDVDTTAEGALAAGRGVCQDHAHIFIGAARALGIPARYACGYLMMDDRVEQDAGHAWAEAHVESLGWVGFDVSNGISPDARYIRVATGRDYRDAAPVTGIRYGAMDEAMHVRLAVQQQRVEQ,not soluble
18,MTEKKKRGLLSWLGFGDEEKSQTTATDTQTQDEPQSQADVEAVAIQTETALTETETETETETETETETETATVEPARIVEQEKPTESFFARLKRSLSRTKANIGAGFFGLFKGKKIDDDLFEELEEQLLIADVGMDTTSKIIANLTARASRQQLRDGEALYGLLKEEMAEILSQVEQPLVIDTEKKPYVILMVGVNGVGKTTTIGKLAKQFQAQGKKVMLAAGDTFRAAAVEQLQVWGERNQVPVIAQHTGADSASVIYDAIEAAKARGIDVVIADTAGRLQNKSNLMEELRKIVRVMKKIDDSAPHEIMLTLDAGTGQNAISQAKLFSDVAPITGITLTKLDGTAKGGVIFAIADQFQIPIRYIGVGEKIDDLRPFATQEFIDALFSREE,not soluble

# — the DeepSol protein solubility set
